Source: the supplement of paper PMC10126150
± gives the standard deviation of the averaged measurements.

System: ATP
Assay: switch fluorescence ratio, 500 uM ATP over buffer (Cy3 cluster intensity, sum of 5 cycles each) (fold (ratio)); higher = stronger signal-on switching upon ATP binding; sequences stand for … in TCGTCGGCAGCGTCAGATGTGTATAAGAGACAGTTTTTTTTTTTTTTTTTTTTTTTTT…TC
Details: aptamer strand: ATP DNA aptamer (quencher-CACCTGGGGGAGTATTGCGGAGGAAGG + anchor), 100 nM annealed; ATP concentration: 500 uM
How it was run: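 The fluorescence ratio divides summed target-cycle Cy3 intensity by summed buffer-cycle Cy3 intensity for each cluster and is averaged per switch-domain sequence. Cy3-labelled switching-strand clusters on a modified Illumina MiSeq flow-cell were annealed to 100 nM quencher-labelled ATP aptamer, then imaged in selection buffer and again after 15 min with 500 uM ATP at 22 °C. Five such cycles were run, with NaOH stripping and re-annealing between them, and clusters outside 100-1000 RFU were excluded.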
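Also: ATP exposure 15 min at 22 °C before imaging.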

Row | Sequence | switch fluorescence ratio
1 | ATTTGAGTTA | 1 ± 0.056
2 | ATTAATGTGT | 0.9987 ± 0.0011
3 | GGGTAGTTCA | 1.009 ± 0.0069
4 | GAGGTAAGGG | 0.998 ± 0.029
5 | CTTTTGGATT | 0.998 ± 0.022
6 | GCGTGCAGGG | 1.01 ± 0.025
7 | TAAAGCCGGT | 1.009 ± 0.0023
8 | TAAGGTGGCC | 1.01 ± 0.013
9 | CGTTACCGGA | 1.01 ± 0.029
10 | TCGAGTAAGG | 1.18 ± 0.28
11 | GGTTCAAGGG | 0.984 ± 0.02
12 | CCGAGCGGGA | 1.77 ± 0.37
13 | AGATAGGAG | 0.989 ± 0.027
14 | ACAAGTTGGA | 1.11 ± 0.061
15 | ATTTTTTTGT | 1 ± 0.026
16 | GCGCAGGCTT | 0.986 ± 0.022
17 | CGAACAGCGC | 1.01 ± 0.019
18 | CTTCTGTGGC | 1.071 ± 0.0073
19 | TTTGTGAATT | 0.972 ± 0.012
20 | AGGGTTTCCA | 1.01 ± 0.06
21 | ATGTTGATAC | 1.07 ± 0.0013
22 | CGCACGGGTC | 1.11 ± 0.038
23 | TACGTCCCGG | 1.08 ± 0.014

Row | Sequence | switch fluorescence ratio
24 | TAACGGGGGT | 1.02 ± 0.062
25 | TCGCGAAATT | 0.9763 ± 0.0042
26 | TAAAATAAAG | 0.993 ± 0.033
27 | CATCAATCTC | 1.12 ± 0.02
28 | CTCGATAGTA | 0.9741 ± 0.003
29 | GGGTAGATGG | 0.9704 ± 0.0062
30 | TATAATAGTA | 1.0013 ± 0.001
31 | AGTTGGAGTT | 0.978 ± 0.043
32 | TATGGTCTGT | 0.981 ± 0.042
33 | CAGACCAGCT | 1.02 ± 0.036
34 | CCGTAGAATT | 1.68 ± 0.046
35 | CAGACAGGGG | 1.05 ± 0.02
36 | AGAGGTTGCA | 0.994 ± 0.032
37 | CCTGAGGTTA | 1.03 ± 0.096
38 | GTATGCAGGG | 0.989 ± 0.035
39 | ACTCTACCGT | 1.29 ± 0.057
40 | TTTGGAATAC | 2.92 ± 1
41 | ACATAATTGA | 1.03 ± 0.017
42 | TTTCAACATA | 0.9987 ± 0.0035
43 | TGAGAAGCAA | 1.34 ± 0.056
44 | ATGATTGTGG | 0.997 ± 0.028
45 | AACAAGTTAG | 1.01 ± 0.015
46 | TCGCGGGTGG | 1.03 ± 0.021

Row | Sequence | switch fluorescence ratio
47 | TTCGTTTTGA | 1.02 ± 0.057
48 | TATGGACTGT | 1.021 ± 0.01
49 | AACGGTATTC | 1.07 ± 0.043
50 | GATTCAGTAC | 1.61 ± 0.056
51 | GTGGTTATCG | 1.02 ± 0.043
52 | ATACATTGTC | 0.978 ± 0.074
53 | GGTCGGGGAT | 1.01 ± 0.022
54 | GAATGAGAGA | 1 ± 0.037
55 | AACGGGGGTC | 1 ± 0.043
56 | GGGGAGGACA | 1.04 ± 0.082
57 | ATGATTGGAT | 0.996 ± 0.029
58 | TGACATTGTA | 1.01 ± 0.072
59 | CAAAAGCCTA | 0.974 ± 0.053
60 | ACAACCGCTT | 1.13 ± 0.017
61 | TCGGGTACGT | 0.967 ± 0.032
62 | AGGCCCGTTT | 1.02 ± 0.029
63 | CAATAGTTGG | 0.993 ± 0.01
64 | ATTCCTCTGG | 1.2 ± 0.018
65 | TGGTGTGGGC | 0.985 ± 0.048
66 | AAGCCTTTTT | 1.01 ± 0.019
67 | TGCTGACCGA | 1.04 ± 0.035
68 | TATTGTTCGC | 0.98 ± 0.046
69 | TATGGTGGAG | 0.981 ± 0.02

Row | Sequence | switch fluorescence ratio
70 | ATATCGGAGG | 0.99 ± 0.041
71 | CTTCTTGTTT | 1.008 ± 0.0037
72 | TGTCGTTTTC | 0.98 ± 0.03
73 | TTCGGAAGTT | 0.966 ± 0.021
74 | TTCATTCGTT | 1.05 ± 0.046
75 | CCGATTGTGT | 1.11 ± 0.017
76 | AATGAAAAAC | 1.007 ± 0.0054
77 | TTATGAGTTG | 0.963 ± 0.029
78 | TTAGTAAGTT | 1.11 ± 0.12
79 | ACAAATGGCA | 1.07 ± 0.037
80 | GAGGTTGGAG | 1 ± 0.00098
81 | GGACTTCTGG | 0.998 ± 0.041
82 | AGGTAGGCCT | 0.991 ± 0.025
83 | AAAGGACGAG | 0.983 ± 0.019
84 | AATCATGCGA | 0.9964 ± 0.0078
85 | GGTTTCTTGA | 1.02 ± 0.021
86 | ATGTAGTCTT | 1 ± 0.0038
87 | TCATATTATT | 1 ± 0.033
88 | TGCCTGCGGA | 1.001 ± 0.005
89 | GGCGGCTGAG | 1 ± 0.067
90 | TTCCGAGATA | 1.119 ± 0.0079
91 | AAATTGTATT | 1 ± 0.024
92 | ATTATGGCTG | 1.07 ± 0.011

Row | Sequence | switch fluorescence ratio
93 | TGGAACTTTT | 0.974 ± 0.021
94 | CGGGATTAGT | 0.99 ± 0.031
95 | TCTCGATTTT | 1.038 ± 0.0042
96 | CGGATTTAAG | 0.9979 ± 0.0066
97 | AATACGGGG | 0.985 ± 0.016
98 | TAATCTGGCG | 1.026 ± 0.0054
99 | CGTGATATAG | 1.02 ± 0.026
100 | TATAAGGGGT | 0.9862 ± 0.0083
101 | CACATTTAGG | 0.978 ± 0.032
102 | CATTATTTGG | 1.003 ± 0.002
103 | GGGTGGGGAC | 0.975 ± 0.015
104 | TTCGTTTTCT | 1 ± 0.039
105 | AGGCCCATGT | 1.02 ± 0.012
106 | TCGGGAACGA | 0.999 ± 0.028
107 | CGGCGTACAT | 1.04 ± 0.02
108 | ACACTAGGTG | 1.42 ± 0.023
109 | CACCAGTCAA | 1.56 ± 0.33
110 | AGGGGAAGGA | 1 ± 0.049
111 | AGGGCAAACG | 1.05 ± 0.0075
112 | TTTTTGAT | 0.972 ± 0.022
113 | GGAATTTCTG | 0.945 ± 0.014
114 | CAGTTCTCGT | 0.969 ± 0.018
115 | GTGGGGCGGA | 1.01 ± 0.023

Row | Sequence | switch fluorescence ratio
116 | GGGCCTGTGA | 1 ± 0.03
117 | CAGAGGGACT | 1.01 ± 0.023
118 | TGGTTAAGGG | 1 ± 0.041
119 | AACGGGCTGG | 0.996 ± 0.04
120 | GGGTTAAGTC | 0.983 ± 0.028
121 | GGGTGTGCCA | 1 ± 0.027
122 | TGGTTCACGT | 1 ± 0.024
123 | TAAAATATTT | 1.05 ± 0.069
124 | AAGAGTAGGA | 0.989 ± 0.0099
125 | CTTAGGTTTG | 1 ± 0.018
126 | ATTAGGTAAT | 0.999 ± 0.011
127 | AAAGGGGGAG | 0.997 ± 0.011
128 | GCGCTAGCAG | 0.99 ± 0.018
129 | GGTTTTCGTT | 0.99 ± 0.021
130 | TTCAGCTCTA | 0.993 ± 0.028
131 | GTTACACTCA | 1.032 ± 0.002
132 | AGGCTGCATG | 1.01 ± 0.021
133 | CATGCGGTTG | 0.978 ± 0.013
134 | CACCGTGGTC | 1.14 ± 0.023
135 | ATATCATCGG | 0.964 ± 0.025
136 | TAAATATCGT | 1 ± 0.013
137 | TAGGTGGGAT | 1.05 ± 0.038
138 | TACTACTTAT | 1.04 ± 0.053

Row | Sequence | switch fluorescence ratio
139 | TTTAACCGTC | 1.06 ± 0.052
140 | TGGGATATAG | 0.994 ± 0.022
141 | AGAGGGGTCT | 1.02 ± 0.043
142 | GGATAAGGCC | 1 ± 0.012
143 | TTGTGTATGG | 1.02 ± 0.052
144 | TAAGTTCGCA | 1.05 ± 0.024
145 | AGATTTAAGT | 0.985 ± 0.022
146 | AATTCCGAGG | 1.14 ± 0.021
147 | ACGGGGGAGT | 1.03 ± 0.019
148 | TTGGGAAAGT | 0.995 ± 0.017
149 | CACCAATAGC | 1.31 ± 0.059
150 | TGGGCAGAGG | 1.01 ± 0.024
151 | TAAAACCCGC | 1.05 ± 0.032
152 | TTTGTGTAAA | 1 ± 0.032
153 | TCGGTGTGAG | 1.01 ± 0.03
154 | GGTATGGGAT | 1.022 ± 0.0059
155 | GGAGCGGGGT | 1.03 ± 0.019
156 | GCGGGAAATT | 1 ± 0.03
157 | AGATATTTCG | 1.02 ± 0.028
